Assay results: patent US20100260775A1 (Pfizer, published 2010)
Like-named read-outs stand apart in the source and are kept apart here.

Columns and labels:
Experiment in all cases: cell-based or functional assay
human NGF = human NGF (human, UniProt P01138 122-241, limits assumed)
rat NGF [1] = molecular target: T1, rat NGF (rat, UniProt P25427 122-241, limits assumed)
rat NGF [2] = molecular target: T1, rat NGF; remark: listed apart in the source
rat NGF [3] = molecular target: T1, rat NGF; remark: listed apart in the source

T1 sequence (P25427 122-241 limits assumed): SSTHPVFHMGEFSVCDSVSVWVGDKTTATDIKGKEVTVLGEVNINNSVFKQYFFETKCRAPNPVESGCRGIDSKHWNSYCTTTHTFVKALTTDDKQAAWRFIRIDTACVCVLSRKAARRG
human NGF, sequence (P01138 122-241 limits assumed): as the sequence (P25427 122-241 limits assumed) above, with T3S, V6I, M9R, T37M, A60D, E65D, T92M, D94G, A117V, G120A counted along it

## mouse antibody 911 (Fab)
Human NGF
  IC50, inhibition of human NGF-dependent survival of mouse E13.5 trigeminal neurons, 1.5 pM NGF: 63.5 pM
  IC50, inhibition of human NGF-dependent survival of mouse E13.5 trigeminal neurons, 15 pM NGF: 322 pM
Rat NGF [1]
  IC50, inhibition of rat NGF-dependent survival of mouse E13.5 trigeminal neurons, 1.5 pM NGF: 34.6 pM
  IC50, inhibition of rat NGF-dependent survival of mouse E13.5 trigeminal neurons, 15 pM NGF: 161 pM

B1: 3C (Fab) (Fab, V domains shown)
VH: QVQLQESGPGLVKPSETLSLTCTVSGFSLIGYDLNWIRQPPGKGLEWIGIIWGDGTTDYNSAVKSRVTISKDTSKNQFSLKLSSVTAADTAVYYCARGGYWYATSYYFDYWGQGTLVTVS
VL: DIQMTQSPSSLSASVGDRVTITCRASQSISNNLNWYQQKPGKAPKLLIYYTSRFHSGVPSRFSGSGSGTDFTFTISSLQPEDIATYYCQQERTLPYTFGQGTKLEIKR
Human NGF
  IC50, inhibition of human NGF-dependent survival of mouse E13.5 trigeminal neurons, 1.5 pM NGF: 5.6 pM
  IC50, inhibition of human NGF-dependent survival of mouse E13.5 trigeminal neurons, 15 pM NGF: 80.9 pM
Rat NGF [2]
  IC50, inhibition of rat NGF-dependent survival of mouse E13.5 trigeminal neurons, 1.5 pM NGF: 6 pM
  IC50, inhibition of rat NGF-dependent survival of mouse E13.5 trigeminal neurons, 15 pM NGF: 31.6 pM

B2: 8L2-6D5 (CDR-grafted antibody with framework mutation V71K) (Fab, V domains shown)
VH: QVQLQESGPGLVKPSETLSLTCTVSGFSLIGYDINWIRQPPGKGLEWIGMIWGDGTTDYNSALKSRVTISKDTSKNQFSLKLSSVTAADTAVYYCARGGYYYGTSYYFDYWGQGTLVTVS
VL: DIQMTQSPSSLSASVGDRVTITCRASQDISNHLNWYQQKPGKAPKLLIYYISRFHSGVPSRFSGSGSGTDFTFTISSLQPEDIATYYCQQSKTLPYTFGQGTKLEIKR
Human NGF
  IC50, inhibition of human NGF-dependent survival of mouse E13.5 trigeminal neurons, 1.5 pM NGF: 462 pM
  IC50, inhibition of human NGF-dependent survival of mouse E13.5 trigeminal neurons, 15 pM NGF: 1580 pM
Rat NGF [2]
  IC50, inhibition of rat NGF-dependent survival of mouse E13.5 trigeminal neurons, 1.5 pM NGF: 169 pM
  IC50, inhibition of rat NGF-dependent survival of mouse E13.5 trigeminal neurons, 15 pM NGF: 730 pM

B3: H19-L129 (Fab, V domains shown)
VH: QVQLQESGPGLVKPSETLSLTCTVSGFSLIGYDLNWIRQPPGKGLEWIGIIWGDGTTDYNSAVKSRVTISKDTSKNQFSLKLSSVTAADTAVYYCARGGYYYGTSYYFDYWGQGTLVTVS
VL: DIQMTQSPSSLSASVGDRVTITCRASQSISNNLNWYQQKPGKAPKLLIYYTSRFHSGVPSRFSGSGSGTDFTFTISSLQPEDIATYYCQQSKTLPYTFGQGTKLEIKR
Human NGF
  IC50, inhibition of human NGF-dependent survival of mouse E13.5 trigeminal neurons, 1.5 pM NGF: 9.6 pM
  IC50, inhibition of human NGF-dependent survival of mouse E13.5 trigeminal neurons, 15 pM NGF: 60.1 pM
Rat NGF [2]
  IC50, inhibition of rat NGF-dependent survival of mouse E13.5 trigeminal neurons, 1.5 pM NGF: 6 pM
  IC50, inhibition of rat NGF-dependent survival of mouse E13.5 trigeminal neurons, 15 pM NGF: 31 pM

B4: antibody E3 (Fab) (Fab, V domains shown)
VH: QVQLQESGPGLVKPSETLSLTCTVSGFSLIGYDLNWIRQPPGKGLEWIGIIWGDGTTDYNSAVKSRVTISKDTSKNQFSLKLSSVTAADTAVYYCARGGYWYATSYYFDYWGQGTLVTVS
VL: DIQMTQSPSSLSASVGDRVTITCRASQSISNNLNWYQQKPGKAPKLLIYYTSRFHSGVPSRFSGSGSGTDFTFTISSLQPEDIATYYCQQEHTLPYTFGQGTKLEIKR
Rat NGF [3]
  IC50, inhibition of NGF-dependent survival of mouse E13.5 trigeminal neurons, 15 pM rat NGF: ~31.6 pM
Human NGF
  IC50, inhibition of human NGF-dependent survival of mouse E13.5 trigeminal neurons, 1.5 pM NGF: < 1.2 pM
  IC50, inhibition of human NGF-dependent survival of mouse E13.5 trigeminal neurons, 15 pM NGF: < 21 pM
Rat NGF [2]
  IC50, inhibition of rat NGF-dependent survival of mouse E13.5 trigeminal neurons, 1.5 pM NGF: < 1.3 pM
  IC50, inhibition of rat NGF-dependent survival of mouse E13.5 trigeminal neurons, 15 pM NGF: < 8.3 pM
